According to patent USRE50313E1, “Musculoskeletal stem cell and medium for inducing differentiation of musculoskeletal stem cell” (CELLATOZ THERAPEUTICS, INC., priority 2017, dated 2025):

System: hMSSCs
Experiment: Differentiation tendency of MSSC medium vs. CM medium
Format: cell-based, human
Conditions: as compared when the CM medium was used
Protocol: The differentiation capacity of a medium (hereinafter, “CM medium”) obtained by replacing the human noggin (Life Technologies), i.e., the constitutional ingredient 1) of the seven constitutional ingredients of the MSSC medium of Example 2, with a conditioned medium (a culture supernatant obtained after culturing CF1 cells with a medium obtained by replacing DMEM/F12 in a complete medium with knockout DMEM (supplemented with 20% knockout serum replacement (Invitrogen, USA), 1 mM glutamine, 1% nonessential amino acids (Invitrogen, USA), 0.1 mM β-mercaptoethanol, 0.1% penicillin-streptomycin and 5 mg/mL bovine serum albumin)) (the remaining constitutional ingredients 2)-7) are identical) was compared with that of the MSSC medium.
Noggin is generally used to maintain the characteristics of hESCs during culturing (Chaturvedi G, Simone P D, Ain R, Soares M J, Wolfe M W. Noggin maintains pluripotency of human embryonic stem cells grown on Matrigel. Cell Prolif. 2009 August; 42(4): 425-33).

B1: noggin: human noggin, constitutional ingredient 1) of the MSSC medium, 250 ng/mL (protein, UniProt Q13253 28-232, looked up)
Noggin: QHYLHIRPAPSDNLPLVDLIEHPDPIFDPKEKDLNETLLRSLLGGHYDPGFMATSPPEDRPGGGGGAAGGAEDLAELDQLLRQRPSGAMPSEIKGLEFSEGLAQGKKQRLSKKLRRKLQMWLWSQTFCPVLYAWNDLGSRFWPRYVKVGSCFSKRSCSVPEGMVCKPSKSVHLTVLRWRCQRRGGQRCGWIPIQYPIISECKCSC
increase of tendency for osteogenic differentiation: ≥ 10 times
